± gives the uncertainty stated by the source.

This data set in a line: abundance fitness (aPCA) (normalised: wild type 0, dead -1); higher = more abundant; growth selection in yeast, the domain comes from the species named. The note with it: Homo sapiens.
For “SAFB-like transcription modulator I49N, Q9NWH9”, the abundance fitness was -0.518 ± 0.073.

“SAFB-like transcription modulator I49P, Q9NWH9” yielded an abundance fitness of -0.739 ± 0.067.

For the substance “SAFB-like transcription modulator I49Q, Q9NWH9”, the abundance fitness is -0.068 ± 0.05.

In the case of “SAFB-like transcription modulator I49R, Q9NWH9”, the abundance fitness is -0.148 ± 0.054.

“SAFB-like transcription modulator I49S, Q9NWH9” came in with an abundance fitness of -0.168 ± 0.05.

“SAFB-like transcription modulator I49T, Q9NWH9” yielded an abundance fitness of -0.223 ± 0.072.

For the substance “SAFB-like transcription modulator I49V, Q9NWH9”, the abundance fitness is -0.079 ± 0.048.

“SAFB-like transcription modulator I49W, Q9NWH9” displayed an abundance fitness of -0.449 ± 0.041.

Consider “SAFB-like transcription modulator I49Y, Q9NWH9”, for which the abundance fitness was -0.076 ± 0.089.

For “SAFB-like transcription modulator I56A, Q9NWH9”, the abundance fitness is -0.829 ± 0.1.

With “SAFB-like transcription modulator I56C, Q9NWH9”, the abundance fitness was -0.18 ± 0.083.

As to “SAFB-like transcription modulator I56D, Q9NWH9”, the abundance fitness is -0.286 ± 0.3.

For “SAFB-like transcription modulator I56E, Q9NWH9”, the abundance fitness was -0.597 ± 0.089.

As for “SAFB-like transcription modulator I56F, Q9NWH9”, the abundance fitness was -0.898 ± 0.21.

On to “SAFB-like transcription modulator I56G, Q9NWH9”, for which the abundance fitness was -0.916 ± 0.072.

Substance “SAFB-like transcription modulator I56H, Q9NWH9” showed an abundance fitness of -0.797 ± 0.19.

“SAFB-like transcription modulator I56L, Q9NWH9” yielded an abundance fitness of 0.002 ± 0.068.

With “SAFB-like transcription modulator I56M, Q9NWH9”, the abundance fitness was -0.217 ± 0.05.

Substance “SAFB-like transcription modulator I56N, Q9NWH9” yielded an abundance fitness of -0.951 ± 0.25.

On to “SAFB-like transcription modulator I56P, Q9NWH9”, for which the abundance fitness was -0.457 ± 0.05.

“SAFB-like transcription modulator I56R, Q9NWH9” came in with an abundance fitness of -0.485 ± 0.07.

As for “SAFB-like transcription modulator I56S, Q9NWH9”, the abundance fitness is -0.678 ± 0.082.

“SAFB-like transcription modulator I56W, Q9NWH9” displayed an abundance fitness of -0.561 ± 0.069.

The substance “SAFB-like transcription modulator I56Y, Q9NWH9” showed an abundance fitness of -0.419 ± 0.16.

“SAFB-like transcription modulator I66A, Q9NWH9” registered an abundance fitness of -0.552 ± 0.15.

Substance “SAFB-like transcription modulator I66C, Q9NWH9” showed an abundance fitness of 0.196 ± 0.11.

Consider “SAFB-like transcription modulator I66E, Q9NWH9”, for which the abundance fitness is -0.272 ± 0.061.

Consider “SAFB-like transcription modulator I66F, Q9NWH9”, for which the abundance fitness was -0.396 ± 0.15.

In turn, “SAFB-like transcription modulator I66G, Q9NWH9” came in with an abundance fitness of -0.517 ± 0.085.

Consider “SAFB-like transcription modulator I66H, Q9NWH9”, for which the abundance fitness was -0.226 ± 0.12.

In the case of “SAFB-like transcription modulator I66L, Q9NWH9”, the abundance fitness is -0.268 ± 0.094.

On to “SAFB-like transcription modulator I66M, Q9NWH9”, for which the abundance fitness was -0.316 ± 0.14.

“SAFB-like transcription modulator I66N, Q9NWH9” showed an abundance fitness of -0.432 ± 0.18.

The substance “SAFB-like transcription modulator I66P, Q9NWH9” registered an abundance fitness of -0.274 ± 0.1.

In turn, “SAFB-like transcription modulator I66Q, Q9NWH9” displayed an abundance fitness of -0.004 ± 0.11.

Turning to “SAFB-like transcription modulator I66R, Q9NWH9”, the abundance fitness is -0.443 ± 0.061.

The substance “SAFB-like transcription modulator I66S, Q9NWH9” yielded an abundance fitness of -0.259 ± 0.083.

In turn, “SAFB-like transcription modulator I66T, Q9NWH9” displayed an abundance fitness of -0.063 ± 0.12.

In the case of “SAFB-like transcription modulator I66V, Q9NWH9”, the abundance fitness is -0.036 ± 0.084.

On to “SAFB-like transcription modulator I66W, Q9NWH9”, for which the abundance fitness is -0.451 ± 0.18.

Take “SAFB-like transcription modulator I66Y, Q9NWH9”: the abundance fitness came to 0.007 ± 0.16.

“SAFB-like transcription modulator K20A, Q9NWH9” gave an abundance fitness of -0.284 ± 0.039.

For “SAFB-like transcription modulator K20C, Q9NWH9”, the abundance fitness is -0.115 ± 0.043.

In the case of “SAFB-like transcription modulator K20D, Q9NWH9”, the abundance fitness is -0.413 ± 0.11.

“SAFB-like transcription modulator K20E, Q9NWH9” returned an abundance fitness of -0.354 ± 0.13.

“SAFB-like transcription modulator K20F, Q9NWH9” yielded an abundance fitness of -0.366 ± 0.16.

Turning to “SAFB-like transcription modulator K20G, Q9NWH9”, the abundance fitness was -0.638 ± 0.082.

For “SAFB-like transcription modulator K20H, Q9NWH9”, the abundance fitness is 0.005 ± 0.12.

“SAFB-like transcription modulator K20I, Q9NWH9” showed an abundance fitness of 0.049 ± 0.11.

For “SAFB-like transcription modulator K20L, Q9NWH9”, the abundance fitness is -0.21 ± 0.078.

“SAFB-like transcription modulator K20M, Q9NWH9” gave an abundance fitness of -0.035 ± 0.075.

Substance “SAFB-like transcription modulator K20N, Q9NWH9” had an abundance fitness of -0.333 ± 0.17.

“SAFB-like transcription modulator K20Q, Q9NWH9” gave an abundance fitness of -0.193 ± 0.091.

For the substance “SAFB-like transcription modulator K20S, Q9NWH9”, the abundance fitness is -0.244 ± 0.036.

Substance “SAFB-like transcription modulator K20T, Q9NWH9” gave an abundance fitness of -0.212 ± 0.053.

Turning to “SAFB-like transcription modulator K20V, Q9NWH9”, the abundance fitness is -0.252 ± 0.072.

In turn, “SAFB-like transcription modulator K20W, Q9NWH9” returned an abundance fitness of -0.284 ± 0.095.

In turn, “SAFB-like transcription modulator K20Y, Q9NWH9” came in with an abundance fitness of -0.454 ± 0.3.

Substance “SAFB-like transcription modulator K21A, Q9NWH9” showed an abundance fitness of -0.182 ± 0.033.

Take “SAFB-like transcription modulator K21C, Q9NWH9”: the abundance fitness is -0.203 ± 0.058.

“SAFB-like transcription modulator K21E, Q9NWH9”: the abundance fitness was -0.195 ± 0.064.

In turn, “SAFB-like transcription modulator K21F, Q9NWH9” showed an abundance fitness of -0.349 ± 0.077.

Consider “SAFB-like transcription modulator K21G, Q9NWH9”, for which the abundance fitness was -0.265 ± 0.046.

In turn, “SAFB-like transcription modulator K21H, Q9NWH9” had an abundance fitness of -0.33 ± 0.091.

“SAFB-like transcription modulator K21L, Q9NWH9” showed an abundance fitness of -0.324 ± 0.041.

“SAFB-like transcription modulator K21N, Q9NWH9” returned an abundance fitness of -0.491 ± 0.094.

The record behind these values is the Human Domainome abundance scans (Beltran et al. 2025).
